Article PMC8596017, “Evolutionary mode for the functional preservation of fast-evolving Drosophila telomere capping proteins” (Open Biology, 2021)

T1: Verrocchio (Ver), wild type, Flag-tagged (D. melanogaster, UniProt Q9VTZ2 1-214)
T1 construct: Verrocchio (Ver), Terminin subunit of D. melanogaster; also called wild-type Ver; source: Arctic express cells (DE3), co-expressed with Moi-HA from a bicistronic pET vector; cell lysate, heparin-sepharose fractions, anti-FLAG M2 eluate; not shown: Flag, N-terminal, kept
T1 sequence (looked up): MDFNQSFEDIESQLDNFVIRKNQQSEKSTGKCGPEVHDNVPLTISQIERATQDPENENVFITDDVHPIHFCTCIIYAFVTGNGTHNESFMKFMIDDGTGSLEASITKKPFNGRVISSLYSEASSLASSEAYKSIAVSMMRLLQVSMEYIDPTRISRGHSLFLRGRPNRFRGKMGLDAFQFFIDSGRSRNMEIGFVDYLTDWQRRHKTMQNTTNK

B1: Modigliani (Moi), HA-tagged at the C-terminus (natural protein, D. melanogaster, UniProt B7Z0L8 1-178, looked up)
chain: MSLVPEASTSRAPKYCYFFKTLLVEELELETSYHNLHYGQCALIGRLAFKANQYRLENVRVKCLPKKYSLGEGTVSLLILGLTHDKVVENRVSTGRYCIVRGEVVLHNVQHPKGAKLTAGGVYDKINSLSNDPLAQKQYLSALLATYRPAIDLWYIQVIDRAEDLLTRRLEMRSLIEK
notes: DTL/Modigliani (Moi), Terminin subunit of D. melanogaster; also called DTL; source: Arctic express cells (DE3), co-expressed with Ver from a bicistronic pET vector; cell lysate, heparin-sepharose fractions, anti-FLAG M2 eluate; not shown: HA, C-terminal, kept

Columns and labels:
[1] = test system: Ver (wild type);Moi (Drosophila melanogaster;Drosophila melanogaster); assay: BLI; details: PBS + 0.05% Tween 20, BLI and EMSA: PBS (137 mM NaCl, 2.7 mM KCl, 10 mM Na2HPO4, 1.8 mM KH2PO4) + 0.05% Tween 20, EMSA 15 min at room temperature, 20 fmol ssDNA, pull-down: 4 C …
[2] = test system: Ver (wild type);Moi (Drosophila melanogaster;Drosophila melanogaster); assay: pull-down; details: reference; BLI and EMSA: PBS (137 mM NaCl, 2.7 mM KCl, 10 mM Na2HPO4, 1.8 mM KH2PO4) + 0.05% Tween 20, EMSA 15 min at room temperature, 20 fmol ssDNA; pull-down: 4 C …
[3] = biological target: M1-Ver (Ver with the Group 1 uncharacterized helices deleted), Flag-tagged (D. melanogaster) (UniProt Q9VTZ2); assay: co-IP; Flag immune-affinity purification: heparin-sepharose fractions loaded on anti-FLAG M2 affinity matrix, washed with buffer I (25 mM Tris HCl pH 7.5, 100 mM NaCl, 1 mM CaCl2, 1 mM MgCl2) or PBS, eluted with 3× Flag peptide
[4] = biological target: M3-Ver (Ver with the putative DNA binding surface, Group 3, partially deleted), Flag-tagged (D. melanogaster) (UniProt Q9VTZ2); assay: as above
[5] = biological target: T1, Verrocchio (Ver), wild type, Flag-tagged; assay: as above; details: partners not purified

Molecule | Kd ([1]; Kd1, heterogeneous ligand (2:1) model) | Kd ([1]; Kd2, heterogeneous ligand (2:1) model) | binding signal (fraction of Moi eluted from ssDNA) [2] | stoichiometry N [3] | stoichiometry N [4] | stoichiometry N [5]
80 nt ssDNA | 129 nM | 1570 nM | 1 | – | – | –
B1 | – | – | – | 1 | 1 | ~1
